The series deals with the molecule itself. The series is described as follows: electron microscopy; purified DnaA (3 mM ATP) incubated with supercoiled plasmids carrying oriC1-dnaA-oriC2 (pAbori1ori2, pSdori1ori2, pWsoriori2); complexes stabilised by glutaraldehyde cross-linking, linearised with ScaI; looped DNA with one protein complex joining oriC1 and oriC2; DnaA molecules are DNA-bound.

B1: Wolinella succinogenes DnaA protein (natural protein, W. succinogenes DSM 1740, UniProt Q7MSY2 1-437, looked up)
chain: MLGDTTLKQLKDEISTLEYERYIKQLRYDEEASRTDLAVYIAPNQFIANWVKTKYGERLAHLFELSTGIRPKIEIRLGSLKKDVKSSSPKAGVSKGQKSTILNPSFTFDSFVVGNSNRFAYEVSQNVAKKQGIAYNPLLIYGGTGLGKTHLLNSIGNYNVAKGKSVIYVTSEQFLNDYLYHIRNNTMDRFRDKYRACDYLLIDDVQFFGGKPQIQEEFFHTFNELHNKNKQIVLTSDKTPKQIAGLEERLKSRFEWGMVSDIQPPELETKINIIKKKCEFDGIYLSNEIISYIATNMDNNIREIEGIIIKLNAYANLMNQEITLQFAKNVLKEQIKEERENITLENIIEVVSKELNVKPAEIKSKGRSKNIANARRIVIFLARTLTPNSMPSLAQFFGMKDHSSVSKAMKTVKTEIEEDANFKMVIEELKNKIKSRN
notes: chromosomal replication initiator protein DnaA of Wolinella succinogenes DSM 1740, cloned from genomic DNA; Supplemented with 3 mM ATP for electron microscopy; also called W. succinogenes DnaA; source: purified as described in (Zawilak-Pawlik et al., 2006) with minor modifications (Supplementary Materials)
Take B1: the binding result is “binds”.

B2: Arcobacter butzleri DnaA protein (natural protein, A. butzleri RM4018, UniProt A8EQT0 1-438, looked up)
chain: MTTKEFLTIIQKEANQIDYERYLKQLVYKKVSSDNKIAIFEVNNKYIASWIKSKFTNLIQHCFEIYDGSKPTIEIKLSNEKKSKKEILKEQTQNESTESTILNPSYTFDSFVVGPSNQMAYNASLAVANKPGIQYNPLFIYGGTGLGKTHLLQAVGNHAIEKGNTVIYVTIEQFMNDFTFSIKNKNMEHFRNKYRKCDVLLIDDIQFLSGKEQTQEEFFHTFNELHNAKKQIVMTSDRLPSQIAGLVDRLKSRFEWGLTADVQIPGLETKIAIIEKKSELNGICLSREIINFIATNLDNSIREIEGVLIRINASASLLNQEITLPMVQGLLKEQIKETKENVKLPDIINIVANQLNIKPSDIKSKKRTATVANARRIVIYLVRELTHNSMPDIAKFLGMKDHSAISHNIKKANELIEKDENFKLIIENLKNKIINSRE
notes: chromosomal replication initiator protein DnaA of Arcobacter butzleri RM4018, cloned from genomic DNA; Supplemented with 3 mM ATP for electron microscopy; also called A. butzleri DnaA; source: purified as described in (Zawilak-Pawlik et al., 2006) with minor modifications (Supplementary Materials)
As to B2, the binding result was “binds”.
